# Reference: the supplement of paper PMC9112550, “Optimization of the antimicrobial peptide Bac7 by deep mutational scanning” (BMC Biology, 2022)
# Tested on: Escherichia coli TOP10
# Experiment: shrunken log2 fold change of peptide-encoding DNA abundance (4.5 h post-induction vs induction); higher = less antimicrobial activity (less host growth inhibition)
# Conditions: time post-induction: 4.5 h; library: site-saturation at positions 5, 18, 19, 20
# 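Note: peptides expressed intracellularly from a pBAD plasmid library in pooled LB shake-flask culture, induced with 0.3% L-arabinose, DNA abundance read by NGS, three biological replicates, DESeq2 with apeglm shrinkage.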
sequence,measurement,value
RRIRNRPPRLPRPRPRPKPTPRP,shrunken log2 fold change,0.133
RRIRGRPPRLPRPRPRPEFFPRP,shrunken log2 fold change,0.891
RRIRDRPPRLPRPRPRPPFPPRP,shrunken log2 fold change,0.206
RRIRHRPPRLPRPRPRPMSPPRP,shrunken log2 fold change,0.0565
RRIRQRPPRLPRPRPRPPRWPRP,shrunken log2 fold change,0.303
RRIRWRPPRLPRPRPRPNTAPRP,shrunken log2 fold change,0.055
RRIRNRPPRLPRPRPRPQYEPRP,shrunken log2 fold change,-0.117
RRIRHRPPRLPRPRPRPPHCPRP,shrunken log2 fold change,-0.203
RRIRLRPPRLPRPRPRPMDMPRP,shrunken log2 fold change,-0.384
RRIRIRPPRLPRPRPRPHCIPRP,shrunken log2 fold change,-2.92
RRIRLRPPRLPRPRPRPQTCPRP,shrunken log2 fold change,-0.28
RRIRCRPPRLPRPRPRPSSAPRP,shrunken log2 fold change,-0.278
RRIRNRPPRLPRPRPRPLQFPRP,shrunken log2 fold change,0.0375
RRIRLRPPRLPRPRPRPYACPRP,shrunken log2 fold change,-0.0291
RRIRMRPPRLPRPRPRPYRDPRP,shrunken log2 fold change,-0.018
RRIRIRPPRLPRPRPRPSVLPRP,shrunken log2 fold change,-0.189
RRIRKRPPRLPRPRPRPKYQPRP,shrunken log2 fold change,0.0989
RRIRVRPPRLPRPRPRPGYCPRP,shrunken log2 fold change,-0.307
RRIRTRPPRLPRPRPRPSCTPRP,shrunken log2 fold change,-0.643
RRIRERPPRLPRPRPRPFNCPRP,shrunken log2 fold change,0.0173
RRIRQRPPRLPRPRPRPRNLPRP,shrunken log2 fold change,0.242
RRIRGRPPRLPRPRPRPIFWPRP,shrunken log2 fold change,0.531
RRIRTRPPRLPRPRPRPFHWPRP,shrunken log2 fold change,0.036
RRIRWRPPRLPRPRPRPTLTPRP,shrunken log2 fold change,0.697
RRIRPRPPRLPRPRPRPNLCPRP,shrunken log2 fold change,0.138
RRIRCRPPRLPRPRPRPTNGPRP,shrunken log2 fold change,-0.0378
RRIRKRPPRLPRPRPRPCAHPRP,shrunken log2 fold change,0.0754
RRIRKRPPRLPRPRPRPSNVPRP,shrunken log2 fold change,-0.343
RRIRPRPPRLPRPRPRPLIRPRP,shrunken log2 fold change,-0.218
RRIRMRPPRLPRPRPRPNLYPRP,shrunken log2 fold change,-0.00588
RRIRYRPPRLPRPRPRPDSEPRP,shrunken log2 fold change,-0.0121
RRIRQRPPRLPRPRPRPAWFPRP,shrunken log2 fold change,0.162
RRIRKRPPRLPRPRPRPLWSPRP,shrunken log2 fold change,-0.014
RRIRERPPRLPRPRPRPDEVPRP,shrunken log2 fold change,0.0489
RRIRVRPPRLPRPRPRPWDKPRP,shrunken log2 fold change,-0.0363
RRIRRRPPRLPRPRPRPNFCPRP,shrunken log2 fold change,0.171
RRIRERPPRLPRPRPRPVFIPRP,shrunken log2 fold change,-0.281
RRIRERPPRLPRPRPRPSMTPRP,shrunken log2 fold change,0.0627
RRIRFRPPRLPRPRPRPDFAPRP,shrunken log2 fold change,0.0852
RRIRLRPPRLPRPRPRPQTYPRP,shrunken log2 fold change,-0.371
RRIRTRPPRLPRPRPRPGSWPRP,shrunken log2 fold change,0.844
RRIRTRPPRLPRPRPRPLNNPRP,shrunken log2 fold change,-0.135
RRIRPRPPRLPRPRPRPDDDPRP,shrunken log2 fold change,-0.175
RRIRCRPPRLPRPRPRPRTCPRP,shrunken log2 fold change,0.0191
RRIRHRPPRLPRPRPRPIMHPRP,shrunken log2 fold change,-0.375
RRIRIRPPRLPRPRPRPIGYPRP,shrunken log2 fold change,-0.085
RRIRERPPRLPRPRPRPCWMPRP,shrunken log2 fold change,-0.239
RRIRVRPPRLPRPRPRPPTTPRP,shrunken log2 fold change,0.47
RRIRPRPPRLPRPRPRPKNSPRP,shrunken log2 fold change,-0.144
RRIRNRPPRLPRPRPRPHENPRP,shrunken log2 fold change,-0.164
RRIRKRPPRLPRPRPRPVCSPRP,shrunken log2 fold change,0.0361
RRIRSRPPRLPRPRPRPPRSPRP,shrunken log2 fold change,0.483
RRIRMRPPRLPRPRPRPRKVPRP,shrunken log2 fold change,0.767
RRIRTRPPRLPRPRPRPWWWPRP,shrunken log2 fold change,-0.0964
RRIRRRPPRLPRPRPRPRVFPRP,shrunken log2 fold change,0.849
RRIRNRPPRLPRPRPRPIPPPRP,shrunken log2 fold change,-0.0301
RRIRFRPPRLPRPRPRPSNIPRP,shrunken log2 fold change,-0.864
RRIRGRPPRLPRPRPRPVNVPRP,shrunken log2 fold change,0.0488
RRIRVRPPRLPRPRPRPMAHPRP,shrunken log2 fold change,0.00201
RRIRARPPRLPRPRPRPRSVPRP,shrunken log2 fold change,0.665
RRIRPRPPRLPRPRPRPDYQPRP,shrunken log2 fold change,-0.211
RRIRRRPPRLPRPRPRPARQPRP,shrunken log2 fold change,-0.0115
RRIRTRPPRLPRPRPRPQIWPRP,shrunken log2 fold change,0.0741
RRIRIRPPRLPRPRPRPIFPPRP,shrunken log2 fold change,-0.104
RRIRCRPPRLPRPRPRPKKWPRP,shrunken log2 fold change,0.00275
RRIRGRPPRLPRPRPRPFPPPRP,shrunken log2 fold change,0.378
RRIRYRPPRLPRPRPRPFMYPRP,shrunken log2 fold change,-1.14
RRIRCRPPRLPRPRPRPMWLPRP,shrunken log2 fold change,-0.235
RRIRIRPPRLPRPRPRPNMYPRP,shrunken log2 fold change,-0.59
RRIRVRPPRLPRPRPRPFHSPRP,shrunken log2 fold change,0.0749
RRIRTRPPRLPRPRPRPFITPRP,shrunken log2 fold change,-0.689
RRIRRRPPRLPRPRPRPMNWPRP,shrunken log2 fold change,0.291
RRIRSRPPRLPRPRPRPEFPPRP,shrunken log2 fold change,0.123
RRIRCRPPRLPRPRPRPLKAPRP,shrunken log2 fold change,-0.249
RRIRNRPPRLPRPRPRPRWPPRP,shrunken log2 fold change,0.286
RRIRFRPPRLPRPRPRPVENPRP,shrunken log2 fold change,-0.109
RRIRMRPPRLPRPRPRPPHDPRP,shrunken log2 fold change,1.47
RRIRTRPPRLPRPRPRPIPIPRP,shrunken log2 fold change,-0.0307
RRIRIRPPRLPRPRPRPCTDPRP,shrunken log2 fold change,-0.143
RRIRQRPPRLPRPRPRPQVHPRP,shrunken log2 fold change,0.0124
RRIRDRPPRLPRPRPRPGDTPRP,shrunken log2 fold change,-0.11
RRIRMRPPRLPRPRPRPMLHPRP,shrunken log2 fold change,0.0756
RRIRWRPPRLPRPRPRPEGNPRP,shrunken log2 fold change,0.29
RRIRKRPPRLPRPRPRPHHNPRP,shrunken log2 fold change,-0.421
RRIRTRPPRLPRPRPRPTVAPRP,shrunken log2 fold change,0.22
RRIRHRPPRLPRPRPRPVRQPRP,shrunken log2 fold change,0.0261
RRIRARPPRLPRPRPRPTMRPRP,shrunken log2 fold change,0.976
RRIRWRPPRLPRPRPRPSDTPRP,shrunken log2 fold change,0.0558
RRIRVRPPRLPRPRPRPDMLPRP,shrunken log2 fold change,-0.024
RRIRERPPRLPRPRPRPNQPPRP,shrunken log2 fold change,0.0495
RRIRQRPPRLPRPRPRPVFPPRP,shrunken log2 fold change,0.212
RRIRIRPPRLPRPRPRPRFNPRP,shrunken log2 fold change,-0.173
RRIRGRPPRLPRPRPRPPQFPRP,shrunken log2 fold change,0.676
RRIRRRPPRLPRPRPRPCIAPRP,shrunken log2 fold change,-0.247
RRIRIRPPRLPRPRPRPCMHPRP,shrunken log2 fold change,-0.171
RRIRERPPRLPRPRPRPERKPRP,shrunken log2 fold change,0.0538
RRIRVRPPRLPRPRPRPTHYPRP,shrunken log2 fold change,-0.0832
RRIRFRPPRLPRPRPRPSEAPRP,shrunken log2 fold change,-0.0845
RRIRPRPPRLPRPRPRPSSDPRP,shrunken log2 fold change,-0.317
RRIRVRPPRLPRPRPRPHVGPRP,shrunken log2 fold change,0.0858
RRIRLRPPRLPRPRPRPQVHPRP,shrunken log2 fold change,-0.184
RRIRERPPRLPRPRPRPAKLPRP,shrunken log2 fold change,-0.0209
RRIRARPPRLPRPRPRPMACPRP,shrunken log2 fold change,0.879
RRIRNRPPRLPRPRPRPPHTPRP,shrunken log2 fold change,-0.0383
RRIRMRPPRLPRPRPRPQTTPRP,shrunken log2 fold change,0.634
RRIRFRPPRLPRPRPRPYVPPRP,shrunken log2 fold change,-0.238
RRIRLRPPRLPRPRPRPMSSPRP,shrunken log2 fold change,0.0128
RRIRRRPPRLPRPRPRPTEKPRP,shrunken log2 fold change,0.155
RRIRGRPPRLPRPRPRPDFRPRP,shrunken log2 fold change,-0.043
RRIRNRPPRLPRPRPRPVQMPRP,shrunken log2 fold change,0.0259
RRIRLRPPRLPRPRPRPAMYPRP,shrunken log2 fold change,-0.139
RRIRWRPPRLPRPRPRPKIFPRP,shrunken log2 fold change,-0.249
RRIRIRPPRLPRPRPRPTQPPRP,shrunken log2 fold change,-0.0427
RRIRVRPPRLPRPRPRPMCIPRP,shrunken log2 fold change,-0.047
RRIRNRPPRLPRPRPRPVNWPRP,shrunken log2 fold change,-0.0184
RRIRRRPPRLPRPRPRPRIQPRP,shrunken log2 fold change,0.241
RRIRARPPRLPRPRPRPIYGPRP,shrunken log2 fold change,0.0455
RRIRMRPPRLPRPRPRPPSGPRP,shrunken log2 fold change,0.525
RRIRSRPPRLPRPRPRPQVNPRP,shrunken log2 fold change,-0.00752
RRIRSRPPRLPRPRPRPDGHPRP,shrunken log2 fold change,-0.0734
RRIRRRPPRLPRPRPRPYCMPRP,shrunken log2 fold change,-0.546
RRIRPRPPRLPRPRPRPDTMPRP,shrunken log2 fold change,-0.649
RRIRCRPPRLPRPRPRPHDNPRP,shrunken log2 fold change,-0.356
RRIRPRPPRLPRPRPRPCSLPRP,shrunken log2 fold change,0.527
RRIRRRPPRLPRPRPRPKHVPRP,shrunken log2 fold change,0.19
